Measured values as given in patent US5847083, “Modified p53 constructs which enhance DNA binding” (The Wistar Institute of Anatomy and Biology).

B1: oligonucleotide Ep21 (dsDNA)
DNA 1: CCCGAACATGTCCCAACATGTTGGGG
DNA 2: CCCCAACATGTTGGGACATGTTCGGG
B2: oligonucleotide Egadd45 (dsDNA)
DNA 1: ACAGAACATGTCTAAGCATGCTGGGGA
DNA 2: TCCCCAGCATGCTTAGACATGTTCTGT
B3: oligonucleotide BC (dsDNA)
DNA 1: CCGGGCATGTCCGGGCATGTCCGGGCATGT
DNA 2: ACATGCCCGGACATGCCCGGACATGCCCGG

What was measured:
Settings in all cases: chain copies: 4; label: 32P
[1] = biological target: T1, p53 Arg284 delta364-393 (Homo sapiens, UniProt P04637 SEQ:1-363); experiment: EMSA; enhanced vs wild type
Description: (§1) For analysis of DNA binding activity, these proteins were incubated with ^32P-labeled oligonucleotides and subjected to electrophoresis as described [Halazonetis (1993a and 1993b) and Waterman (1995), both cited above]. […] CCC-GAACA-TGTCC-CAACA-TGTTG-GGG, each contain a p53 binding site, which is underlined. […] Oligonucleotide Egadd45has the sequence [SEQ ID NO: 31] ACA-GAACA-TGTCT-AAGCA-TGCTG-GGGA. Oligonucleotide TF3, which contains three tandem repeats of [SEQ ID NO: 32] […], is a non-specific DNA [Halazonetis et al, *EMBO J.*, 12:1021–1028 (1993)].
(§2) Figure 4: FIG. 4 illustrates the effect of the Thr284 to Arg substitution on binding of wild-type p53 and tumor-derived p53 mutants to a high affinity DNA site, and to the sites in the p21^cip1 and gadd45 genes (oligonucleotides BC, Ep21 and Egadd45, respectively). Binding was assayed by gel retardation shift analysis on native electrophoretic gels. Only the region of the gel corresponding to the p53-DNA complexes is shown. The amino acids are abbreviated using the single letter code: Arg, R; Cys, C; Gln, Q; His, H; Lys, K.

[2] = biological target: T1, p53 Arg284 delta364-393; experiment: EMSA; enhancement not noted on this site
Description: as §1, §2

[3] = biological target: p53 delta364-393 (Homo sapiens, UniProt P04637 SEQ:1-363); experiment: EMSA
Description: as §1, §2

[4] = biological target: p53 Ser249 (Homo sapiens, UniProt P04637 SEQ:1-393); experiment: EMSA; not activated by PAb421
Description: as §1

Binder	binding result [1]	binding result [2]	binding result [3]	binding result [4]
B1	binds	–	–	–
B2	–	binds	binds	–
B3	binds	–	–	no binding
